Experimental data published in FireProtDB (doi:10.1002/pro.5560050915).

B1: Adrenodoxin, mitochondrial, P00257 (parent)
chain: MAARLLRVASAALGDTAGRWRLLARPRAGAGGLRGSRGPGLGGGAVATRTLSVSGRAQSSSEDKITVHFINRDGETLTTKGKIGDSLLDVVVQNNLDIDGFGACEGTLACSTCHLIFEQHIFEKLEAITDEENDMLDLAYGLTDRSRLGCQICLTKAMDNMTVRVPDAVSDARESIDMGMNSSKIE

Variants of: B1
Conditions: Bos taurus, pH 8.5, Thermal, DSC, ascorbate 1 mM, structure 1AYF, whole UniProt chain shown; for ddG of mutation (higher = less stable) / unfolding free energy: 37 °C

Variant	ddG of mutation (higher = less stable) [kJ/mol]	unfolding free energy [kJ/mol]	Tm [°C]	change of melting temperature, mutant - wild type (higher = more stable) [°C]	heat capacity change of unfolding [kcal/mol/K]	unfolding enthalpy (calorimetric) [kJ/mol]
Y140W	0.879	12.4	51.7	0.31	1.87	329
Y140S	–	–	50.6	-0.79	1.96	334
Y140F	0.0418	13.3	51.5	0.11	1.8	350
Y140L	1.51	11.8	50.7	-0.69	1.92	330
H114Q	–	–	46.5	-4.94	1.7	249
H114R	4.85	8.45	49.3	-2.11	1.03	249
H114T	4.98	8.33	–	–	–	–
C153S	–	–	55.8	4.36	1.62	374
T112A	5.48	7.82	47.1	-4.29	1.63	285
T112S	-0.209	13.5	51.6	0.21	1.91	354
D134E	-1.88	15.2	53.4	2.01	2.45	363
